Ten molecules from patent publication US20110105394A1 (Novo Nordisk, published 2011) can be followed below.

For the test, the target named is T1, Amylin 3(a) receptor (human calcitonin receptor (CTa) with RAMP-3) (human, UniProt P30988 25-474; O60896 24-148, limits assumed).
T1 sequence (looked up) 1: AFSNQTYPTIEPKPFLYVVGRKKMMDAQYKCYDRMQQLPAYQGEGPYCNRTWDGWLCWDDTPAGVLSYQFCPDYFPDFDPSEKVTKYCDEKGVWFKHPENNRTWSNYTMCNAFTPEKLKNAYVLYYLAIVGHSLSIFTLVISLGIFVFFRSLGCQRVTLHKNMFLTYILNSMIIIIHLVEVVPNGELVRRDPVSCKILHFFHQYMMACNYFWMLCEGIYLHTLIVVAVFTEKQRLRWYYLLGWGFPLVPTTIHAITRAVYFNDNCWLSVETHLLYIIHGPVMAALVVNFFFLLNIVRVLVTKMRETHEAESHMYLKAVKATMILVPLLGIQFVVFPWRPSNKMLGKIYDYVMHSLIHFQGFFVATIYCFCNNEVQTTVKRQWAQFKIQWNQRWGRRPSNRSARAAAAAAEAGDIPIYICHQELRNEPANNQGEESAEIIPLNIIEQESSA
T1 sequence (looked up) 2: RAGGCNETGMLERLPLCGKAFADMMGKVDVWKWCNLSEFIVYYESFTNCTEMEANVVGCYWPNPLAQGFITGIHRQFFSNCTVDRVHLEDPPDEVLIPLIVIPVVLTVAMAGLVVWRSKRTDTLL
The test is described as follows: cell-based or functional assay.

*1 amine or outer side, *2 acyl side, *3 side chain or, on linkers, in order; H or OH if unused. Bridges are numbered along the chain shown (N, C = ends). Where no end group is shown, it is not given here. The star is where a group is joined. X2 = (S)‑4‑Carboxy‑4‑(19-carboxynonadecanoylamino)butyryl, O=C(O)CCCCCCCCCCCCCCCCCCC(=O)N[C@@H](CCC(=O)*)C(=O)O; C20 diacid = O=C(O)CCCCCCCCCCCCCCCCCCC(=O)*; C18 diacid = O=C(O)CCCCCCCCCCCCCCCCC(=O)*; γGlu = O=C(O)[C@H](CCC(=O)[*:2])N[*:1]; AEEA = NCCOCCOCC(=O)O

B1: N-alpha-[(S)-4-Carboxy-4-(19-carboxynonadecanoylamino)butyryl]-Glu-Arg-[Glu1,Arg17,Ala25,Pro26,Ser28,Ser29]-pramlintide (peptide)
peptide: X2-ERECNTATCATQRLANFLRHSSNNFGAPLSSTNVGSNTY-NH2
modifications: disulfide 4-9
SMILES: CC(C)C[C@H](NC(=O)[C@H](CCCNC(=N)N)NC(=O)[C@H](CCC(N)=O)NC(=O)[C@@H](NC(=O)[C@H](C)NC(=O)[C@@H]1CSSC[C@H](NC(=O)[C@H](CCC(=O)O)NC(=O)[C@H](CCCNC(=N)N)NC(=O)[C@H](CCC(=O)O)NC(=O)CC[C@H](NC(=O)CCCCCCCCCCCCCCCCCCC(=O)O)C(=O)O)C(=O)N[C@@H](CC(N)=O)C(=O)N[C@@H]([C@@H](C)O)C(=O)N[C@@H](C)C(=O)N[C@@H]([C@@H](C)O)C(=O)N1)[C@@H](C)O)C(=O)N[C@@H](C)C(=O)N[C@@H](CC(N)=O)C(=O)N[C@@H](Cc1ccccc1)C(=O)N[C@@H](CC(C)C)C(=O)N[C@@H](CCCNC(=N)N)C(=O)N[C@@H](Cc1c[nH]cn1)C(=O)N[C@@H](CO)C(=O)N[C@@H](CO)C(=O)N[C@@H](CC(N)=O)C(=O)N[C@@H](CC(N)=O)C(=O)N[C@@H](Cc1ccccc1)C(=O)NCC(=O)N[C@@H](C)C(=O)N1CCC[C@H]1C(=O)N[C@@H](CC(C)C)C(=O)N[C@@H](CO)C(=O)N[C@@H](CO)C(=O)N[C@H](C(=O)N[C@@H](CC(N)=O)C(=O)N[C@H](C(=O)NCC(=O)N[C@@H](CO)C(=O)N[C@@H](CC(N)=O)C(=O)N[C@H](C(=O)N[C@@H](Cc1ccc(O)cc1)C(N)=O)[C@@H](C)O)C(C)C)[C@@H](C)O
Take B1: the “Potency Luciferase” value came to 0.2 nM.

B2: N-alpha-[(S)-4-Carboxy-4-(19-carboxynonadecanoylamino)butyryl]-Glu-Arg-[Glu1,Asp14,His17,Gln21,Ala25,Pro26,Ser28,Ser29]-pramlintide (peptide)
peptide: X2-ERECNTATCATQRLADFLHHSSQNFGAPLSSTNVGSNTY-NH2
modifications: disulfide 4-9
SMILES: CC(C)C[C@H](NC(=O)[C@H](CCCNC(=N)N)NC(=O)[C@H](CCC(N)=O)NC(=O)[C@@H](NC(=O)[C@H](C)NC(=O)[C@@H]1CSSC[C@H](NC(=O)[C@H](CCC(=O)O)NC(=O)[C@H](CCCNC(=N)N)NC(=O)[C@H](CCC(=O)O)NC(=O)CC[C@H](NC(=O)CCCCCCCCCCCCCCCCCCC(=O)O)C(=O)O)C(=O)N[C@@H](CC(N)=O)C(=O)N[C@@H]([C@@H](C)O)C(=O)N[C@@H](C)C(=O)N[C@@H]([C@@H](C)O)C(=O)N1)[C@@H](C)O)C(=O)N[C@@H](C)C(=O)N[C@@H](CC(=O)O)C(=O)N[C@@H](Cc1ccccc1)C(=O)N[C@@H](CC(C)C)C(=O)N[C@@H](Cc1c[nH]cn1)C(=O)N[C@@H](Cc1c[nH]cn1)C(=O)N[C@@H](CO)C(=O)N[C@@H](CO)C(=O)N[C@@H](CCC(N)=O)C(=O)N[C@@H](CC(N)=O)C(=O)N[C@@H](Cc1ccccc1)C(=O)NCC(=O)N[C@@H](C)C(=O)N1CCC[C@H]1C(=O)N[C@@H](CC(C)C)C(=O)N[C@@H](CO)C(=O)N[C@@H](CO)C(=O)N[C@H](C(=O)N[C@@H](CC(N)=O)C(=O)N[C@H](C(=O)NCC(=O)N[C@@H](CO)C(=O)N[C@@H](CC(N)=O)C(=O)N[C@H](C(=O)N[C@@H](Cc1ccc(O)cc1)C(N)=O)[C@@H](C)O)C(C)C)[C@@H](C)O
As for B2, the “Potency Luciferase” value turned out to be 0.06 nM.

B3: N-alpha-[(S)-4-Carboxy-4-(19-carboxynonadecanoylamino)butyryl]-[His17,Glu24]-pramlintide (2-37) (peptide)
peptide: {C20 diacid-γGlu}-CNTATCATQRLANFLHHSSNNFEPILPPTNVGSNTY-NH2
modifications: disulfide 1-6
SMILES: CC[C@H](C)[C@H](NC(=O)[C@@H]1CCCN1C(=O)[C@H](CCC(=O)O)NC(=O)[C@H](Cc1ccccc1)NC(=O)[C@H](CC(N)=O)NC(=O)[C@H](CC(N)=O)NC(=O)[C@H](CO)NC(=O)[C@H](CO)NC(=O)[C@H](Cc1c[nH]cn1)NC(=O)[C@H](Cc1c[nH]cn1)NC(=O)[C@H](CC(C)C)NC(=O)[C@H](Cc1ccccc1)NC(=O)[C@H](CC(N)=O)NC(=O)[C@H](C)NC(=O)[C@H](CC(C)C)NC(=O)[C@H](CCCNC(=N)N)NC(=O)[C@H](CCC(N)=O)NC(=O)[C@@H](NC(=O)[C@H](C)NC(=O)[C@@H]1CSSC[C@H](NC(=O)CC[C@H](NC(=O)CCCCCCCCCCCCCCCCCCC(=O)O)C(=O)O)C(=O)N[C@@H](CC(N)=O)C(=O)N[C@@H]([C@@H](C)O)C(=O)N[C@@H](C)C(=O)N[C@@H]([C@@H](C)O)C(=O)N1)[C@@H](C)O)C(=O)N[C@@H](CC(C)C)C(=O)N1CCC[C@H]1C(=O)N1CCC[C@H]1C(=O)N[C@H](C(=O)N[C@@H](CC(N)=O)C(=O)N[C@H](C(=O)NCC(=O)N[C@@H](CO)C(=O)N[C@@H](CC(N)=O)C(=O)N[C@H](C(=O)N[C@@H](Cc1ccc(O)cc1)C(N)=O)[C@@H](C)O)C(C)C)[C@@H](C)O
Turning to B3, the “Potency Luciferase” value came out at 0.1 nM.

B4: N-alpha-[(S)-4-Carboxy-4-(19-carboxynonadecanoylamino)butyryl]-His-[His1,His17,Arg18]-pramlintide (peptide)
peptide: HHCNTATCATQRLANFLHRSSNNFGPILPPTNVGSNTY-NH2
modifications: disulfide 3-8; not fully specified (N-terminus); printed as N-alpha-[(S)-4-Carboxy-4-(19-carboxynonadecanoylamino)butyryl]-His-[His1,His17,Arg18]-pramlintide
As for B4, the “Potency Luciferase” value stood at 0.2 nM.

B5: N-alpha-[3-(2-{2-[2-(2-{2-[2-(2-{2-[(S)-4-Carboxy-4-(17-carboxyheptadecanoylamino) … (peptide)
peptide: RCNTATCATQRLANFLHHSSNNFGPILPPTNVGSNTY-NH2
modifications: disulfide 2-7; not fully specified (N-terminus); printed as N-alpha-[3-(2-{2-[2-(2-{2-[2-(2-{2-[(S)-4-Carboxy-4-(17-carboxyheptadecanoylamino) butyrylamino]ethoxy}ethoxy)ethoxy]ethoxy}ethoxy)ethoxy]ethoxy}ethoxy)propionylamino][Arg1,His17]-pramlintide
Regarding B5, the “Potency Luciferase” value came out at 0.08 nM.

B6: N-alpha-[(S)-4-Carboxy-4-(19-carboxynonadecanoylamino)butyryl]-Glu-[Glu1,His17]-pramlintide (peptide)
peptide: EECNTATCATQRLANFLHHSSNNFGPILPPTNVGSNTY-NH2
modifications: disulfide 3-8; not fully specified (N-terminus); printed as N-alpha-[(S)-4-Carboxy-4-(19-carboxynonadecanoylamino)butyryl]-Glu-[Glu1,His17]-pramlintide
As for B6, the “Potency Luciferase” value was determined as 0.3 nM.

B7: N-alpha-[2-(2-{2-[2-(2-{2-[(S)-4-Carboxy-4-(17-carboxyheptadecanoylamino)butyrylamino]ethoxy}ethoxy)acetylamino]ethoxy}ethoxy)acetyl][Arg1,His17]-pramlintide (peptide)
peptide: {C18 diacid-γGlu-AEEA-AEEA}-RCNTATCATQRLANFLHHSSNNFGPILPPTNVGSNTY-NH2
modifications: disulfide 2-7
SMILES: CC[C@H](C)[C@H](NC(=O)[C@@H]1CCCN1C(=O)CNC(=O)[C@H](Cc1ccccc1)NC(=O)[C@H](CC(N)=O)NC(=O)[C@H](CC(N)=O)NC(=O)[C@H](CO)NC(=O)[C@H](CO)NC(=O)[C@H](Cc1c[nH]cn1)NC(=O)[C@H](Cc1c[nH]cn1)NC(=O)[C@H](CC(C)C)NC(=O)[C@H](Cc1ccccc1)NC(=O)[C@H](CC(N)=O)NC(=O)[C@H](C)NC(=O)[C@H](CC(C)C)NC(=O)[C@H](CCCNC(=N)N)NC(=O)[C@H](CCC(N)=O)NC(=O)[C@@H](NC(=O)[C@H](C)NC(=O)[C@@H]1CSSC[C@H](NC(=O)[C@H](CCCNC(=N)N)NC(=O)COCCOCCNC(=O)COCCOCCNC(=O)CC[C@H](NC(=O)CCCCCCCCCCCCCCCCC(=O)O)C(=O)O)C(=O)N[C@@H](CC(N)=O)C(=O)N[C@@H]([C@@H](C)O)C(=O)N[C@@H](C)C(=O)N[C@@H]([C@@H](C)O)C(=O)N1)[C@@H](C)O)C(=O)N[C@@H](CC(C)C)C(=O)N1CCC[C@H]1C(=O)N1CCC[C@H]1C(=O)N[C@H](C(=O)N[C@@H](CC(N)=O)C(=O)N[C@H](C(=O)NCC(=O)N[C@@H](CO)C(=O)N[C@@H](CC(N)=O)C(=O)N[C@H](C(=O)N[C@@H](Cc1ccc(O)cc1)C(N)=O)[C@@H](C)O)C(C)C)[C@@H](C)O
Turning to B7, the “Potency Luciferase” value came out at 0.03 nM.

B8: N-alpha-[(S)-4-Carboxy-4-(19-carboxynonadecanoylamino)butyryl]-Glu-[Glu1,Arg17]-pramlintide (peptide)
peptide: EECNTATCATQRLANFLRHSSNNFGPILPPTNVGSNTY-NH2
modifications: disulfide 3-8; not fully specified (N-terminus); printed as N-alpha-[(S)-4-Carboxy-4-(19-carboxynonadecanoylamino)butyryl]-Glu-[Glu1,Arg17]-pramlintide
On to B8, for which the “Potency Luciferase” value was determined as 0.3 nM.

B9: N-alpha-[(S)-4-Carboxy-4-(19-carboxynonadecanoylamino)butyryl]-[Glu 1,His17]-pramlintide (peptide)
peptide: {C20 diacid-γGlu}-ECNTATCATQRLANFLHHSSNNFGPILPPTNVGSNTY-NH2
modifications: disulfide 2-7
SMILES: CC[C@H](C)[C@H](NC(=O)[C@@H]1CCCN1C(=O)CNC(=O)[C@H](Cc1ccccc1)NC(=O)[C@H](CC(N)=O)NC(=O)[C@H](CC(N)=O)NC(=O)[C@H](CO)NC(=O)[C@H](CO)NC(=O)[C@H](Cc1c[nH]cn1)NC(=O)[C@H](Cc1c[nH]cn1)NC(=O)[C@H](CC(C)C)NC(=O)[C@H](Cc1ccccc1)NC(=O)[C@H](CC(N)=O)NC(=O)[C@H](C)NC(=O)[C@H](CC(C)C)NC(=O)[C@H](CCCNC(=N)N)NC(=O)[C@H](CCC(N)=O)NC(=O)[C@@H](NC(=O)[C@H](C)NC(=O)[C@@H]1CSSC[C@H](NC(=O)[C@H](CCC(=O)O)NC(=O)CC[C@H](NC(=O)CCCCCCCCCCCCCCCCCCC(=O)O)C(=O)O)C(=O)N[C@@H](CC(N)=O)C(=O)N[C@@H]([C@@H](C)O)C(=O)N[C@@H](C)C(=O)N[C@@H]([C@@H](C)O)C(=O)N1)[C@@H](C)O)C(=O)N[C@@H](CC(C)C)C(=O)N1CCC[C@H]1C(=O)N1CCC[C@H]1C(=O)N[C@H](C(=O)N[C@@H](CC(N)=O)C(=O)N[C@H](C(=O)NCC(=O)N[C@@H](CO)C(=O)N[C@@H](CC(N)=O)C(=O)N[C@H](C(=O)N[C@@H](Cc1ccc(O)cc1)C(N)=O)[C@@H](C)O)C(C)C)[C@@H](C)O
Turning to B9, the “Potency Luciferase” value was 0.2 nM.

B10: N-alpha-[(S)-4-Carboxy-4-(19-carboxynonadecanoylamino)butyryl]-[His17]-pramlintide (2-37) (peptide)
peptide: {C20 diacid-γGlu}-CNTATCATQRLANFLHHSSNNFGPILPPTNVGSNTY-NH2
modifications: disulfide 1-6
Consider B10, for which the “Potency Luciferase” value came out at 0.1 nM.
